Reference: US20190153410A1 (NOVOZYMES A S, published 2019)

T1: propeptide of Rhizomucor miehei lipase (RmL propeptide)
T1 chain: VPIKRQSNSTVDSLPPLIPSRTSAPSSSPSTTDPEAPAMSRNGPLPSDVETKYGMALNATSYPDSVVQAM

T2: MuciLip2CN (SEQ ID NO: 6)
T2 chain: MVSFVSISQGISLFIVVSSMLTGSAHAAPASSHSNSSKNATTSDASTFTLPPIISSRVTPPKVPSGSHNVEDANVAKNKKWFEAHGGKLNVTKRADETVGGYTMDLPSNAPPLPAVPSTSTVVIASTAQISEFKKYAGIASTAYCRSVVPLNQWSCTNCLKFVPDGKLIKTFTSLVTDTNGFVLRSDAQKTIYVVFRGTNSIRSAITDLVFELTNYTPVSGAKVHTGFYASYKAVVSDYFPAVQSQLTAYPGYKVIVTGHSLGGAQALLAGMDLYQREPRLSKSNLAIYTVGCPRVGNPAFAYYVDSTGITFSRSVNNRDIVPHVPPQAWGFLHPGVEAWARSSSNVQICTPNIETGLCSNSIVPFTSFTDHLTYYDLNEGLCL

T3: RhimiLip1 (SEQ ID NO: 7)
T3 chain: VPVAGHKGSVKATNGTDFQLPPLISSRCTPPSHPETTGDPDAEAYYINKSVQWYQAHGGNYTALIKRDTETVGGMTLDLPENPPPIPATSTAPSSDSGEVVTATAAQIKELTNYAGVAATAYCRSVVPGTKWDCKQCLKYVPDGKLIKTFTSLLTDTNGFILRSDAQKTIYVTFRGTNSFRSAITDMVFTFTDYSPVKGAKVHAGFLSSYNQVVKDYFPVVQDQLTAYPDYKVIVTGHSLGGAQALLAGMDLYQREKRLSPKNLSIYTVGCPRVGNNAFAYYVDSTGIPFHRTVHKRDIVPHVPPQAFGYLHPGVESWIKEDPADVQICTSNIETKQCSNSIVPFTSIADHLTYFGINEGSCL

T4: Lipex (SEQ ID NO: 5) (Thermomyces lanuginosus (Thermophilic …, UniProt O59952 23-291))
T4 chain: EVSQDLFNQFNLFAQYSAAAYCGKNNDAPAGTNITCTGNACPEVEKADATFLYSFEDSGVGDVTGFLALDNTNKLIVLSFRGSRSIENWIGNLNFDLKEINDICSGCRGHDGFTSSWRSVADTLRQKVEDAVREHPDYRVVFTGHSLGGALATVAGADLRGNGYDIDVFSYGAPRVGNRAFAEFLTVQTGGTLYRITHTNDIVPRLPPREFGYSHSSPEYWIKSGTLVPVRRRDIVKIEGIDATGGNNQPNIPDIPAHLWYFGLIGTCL

T5: Rhizomucor miehei lipase (RmL) mature protein (Rhizomucor miehei, UniProt P19515 95-363)
T5 sequence: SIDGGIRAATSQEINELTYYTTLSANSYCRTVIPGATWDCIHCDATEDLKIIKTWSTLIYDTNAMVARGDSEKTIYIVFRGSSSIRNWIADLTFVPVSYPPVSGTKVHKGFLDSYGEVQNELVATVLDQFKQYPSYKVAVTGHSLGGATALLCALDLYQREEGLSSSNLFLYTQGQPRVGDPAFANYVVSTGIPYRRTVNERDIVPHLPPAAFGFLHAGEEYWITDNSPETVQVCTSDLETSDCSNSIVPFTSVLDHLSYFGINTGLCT

B1: Rhizomucor miehei lipase (RmL) mature protein (protein)
chain: T5 sequence
B2: propeptide of Rhizomucor miehei lipase (RmL propeptide) (peptide)
peptide: T1 chain

Key:
[1] = biological target: T1, propeptide of Rhizomucor miehei lipase …
[2] = biological target: T2, MuciLip2CN (SEQ ID NO: 6); assay: cell-based or functional assay
RhimiLip1 (SEQ ID NO: 7) = biological target: T3, RhimiLip1 (SEQ ID NO: 7); assay: cell-based or functional assay
Lipex (SEQ ID NO: 5) = biological target: T4, Lipex (SEQ ID NO: 5); assay: cell-based or functional assay
[3] = biological target: T5, Rhizomucor miehei lipase (RmL) mature …; assay: cell-based or functional assay

Binder | hydrolytic activity on p-nitrophenyl acyl esters (C3, C6, C10, C12, C16), release of p-nitrophenol at 405 nm [1] | RP(wash) with inhibitor, AMSA, propeptide:lipase 320:1 (normalized to no inhibitor = 1.00) [2] | RP(wash) with inhibitor, AMSA, propeptide:lipase 320:1 (normalized to no inhibitor = 1.00) (RhimiLip1 (SEQ ID NO: 7)) | RP(wash) with inhibitor, AMSA, propeptide:lipase 320:1 (normalized to no inhibitor = 1.00) (Lipex (SEQ ID NO: 5)) | RP(wash) with inhibitor, AMSA, propeptide:lipase 320:1 (normalized to no inhibitor = 1.00) [3]
B1 | RmL with the propeptide bound showed no activity at any of the conditions tested |  |  |  | 
B2 |  | 1.1 | 0.92 | 0.89 | 0.02
